Measurements taken from paper PMC9877840.

Legend:
S309 = assay: SPR
[1] = molecular target: R. shameli ACE2‐mFC (Rhinolophus shameli); assay: SPR

Substance | Kd (S309) | Kd [1]
RshSTT182/200 receptor binding domain (RBD) (domain or fragment) | 0.00375 µM | 
SARS‐CoV‐2 RBD (from UniProt P0DTC2 319-541) (domain or fragment) |  | 6.64 µM
